Measurements from article PMC2748305.

Legend:
[1] = substrate: O=C(O)CCC(=O)N[C@H](CCC(=O)O)C(=O)O; test: steady-state kinetics; format: biochemical, Bordetella bronchiseptica; conditions: Zn2+; pH 7.5
[2] = substrate: O=CN[C@H](CCC(=O)O)C(=O)O; test: steady-state kinetics; format: biochemical, Bordetella bronchiseptica; conditions: Zn2+; pH 7.5

B1: Bb3285 (N-acyl-D-glutamate deacylase) (Bordetella bronchiseptica RB50) (protein)
chain: MQNAEKLDFKITGGWIIDGTGAPRRRADLGVRDGRIAAIGELGAHPARHAWDASGKIVAPGFIDVHGHDDLMFVEKPDLRWKTSQGITTVVVGNCGVSAAPAPLPGNTAAALALLGETPLFADVPAYFAALDAQRPMINVAALVGHANLRLAAMRDPQAAPTAAEQQAMQDMLQAALEAGAVGFSTGLAYQPGAVAQAAELEGLARVAAERRRLHTSHIRNEADGVEAAVEEVLAIGRGTGCATVVSHHKCMMPQNWGRSRATLANIDRAREQGVEVALDIYPYPGSSTILIPERAETIDDIRITWSTPHPECSGEYLADIAARWGCDKTTAARRLAPAGAIYFAMDEDEVKRIFQHPCCMVGSDGLPNDARPHPRLWGSFTRVLGRYVREARLMTLEQAVARMTALPARVFGFAERGVLQPGAWADVVVFDPDTVADRATWDEPTLASVGIAGVLVNGAEVFPQPPADGRPGQVLRAGA
Work on B1 yielded a kcat/Km [1] of 96000 ± 35000 M⁻¹ s⁻¹, a Km [2] of 380 ± 35 µM and a kcat [2] of 2200 ± 72 s⁻¹.
